Biological target: GST-tagged active human MEK1, Q02750

B1: GST-tagged inactive human ERK1 (protein)
chain: MAAAAAQGGGGGEPRRTEGVGPGVPGEVEMVKGQPFDVGPRYTQLQYIGEGAYGMVSSAYDHVRKTRVAIKKISPFEHQTYCQRTLREIQILLRFRHENVIGIRDILRASTLEAMRDVYIVQDLMETDLYKLLKSQQLSNDHICYFLYQILRGLKYIHSANVLHRDLKPSNLLINTTCDLKICDFGLARIADPEHDHTGFLTEYVATRWYRAPEIMLNSKGYTKSIDIWSVGCILAEMLSNRPIFPGKHYLDQLNHILGILGSPSQEDLNCIINMKARNYLQSLPSKTKVAWAKLFPKSDSKALDLLDRMLTFNPNKRITVEEALAHPYLEQYYDPTDEPVAEEPFTFAMELDDLPKERLKELIFQETARFQPGVLEAP
in vitro HSF1 Ser326 phosphorylation by GST-MEK1 in the presence of inactive GST-ERK1, detected by immunoblotting: recombinant ERK1 proteins impeded in vitro HSF1 Ser326 phosphorylation by recombinant MEK1 proteins
